Data from the nanobody polyreactivity screen of Harvey et al. (2022).

experiment: yeast display, Sf9 membrane polyspecificity reagent, FACS + sequencing; frameworks hold sequencing errors
Method in brief: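 Genes from sorted yeast were amplified by colony PCR, read by MiSeq 2 × 250 sequencing and filtered on CDR length. These cells carried a synthetic nanobody library in Saccharomyces cerevisiae BJ5465 and were sorted by FACS into low and high (top ~1%) gates on anti-HA and streptavidin fluorescence. Polyreactivity is labelled according to the gate of origin.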

Sequence	polyreactivity (PSR sort gate)
QVQLVESGGGLVQAGGSLRLSCAASGSTFSLYAMGWYRQAPGKERELVAAITRSGGGTHYADSVKGRFTISRDNAKNTVYLQMNSLKPEDTAVYYCAKRQSGYRYDYWGQGTEVTVSS	low polyreactivity
QFQLVESGGGLVQAGGSLRLRCAATGSNFYVYALGWYRQAPGKETELVAAIRRTGSSTYYADSVKGRFTMSRDNAKNTDYLQMNSLKPEDTAVYYCAARYWRARAGSYDYWGQGTQVTVSS	high polyreactivity
QVQLVESGGGLVQAGGSLRLSCAASGTIFNRYAMGWYRQAPGKERELVAAITRGGTTYYADSVKGRFTISRDNATNTVYLQMNSLKPEDTAVYYCAARLRYTTVIYYYWGQGTQVTVSS	high polyreactivity
QVQLVESGGRLVQAGGSLRLSCAPSGRTFRWYAMGWYRQSPGKERELVAAISRSGGSTYYADSVKGRFTISRDNAKYTVFLQMNILKPEDTAVYYCANVRYDFKLDYWGQGTQVTVSS	high polyreactivity
QVQLVESGGGLVQAGGSLRLSCAASGRTFVYYAMGWYRQAPGKERELVATISTTGGRTYYADSVKGRFTISRDNAKNTVYLQMNSLKPEDTAVYYCAADLYGAYGYWGQGTQVTVSS	low polyreactivity
QVQLVESGGGLVQAGGSLRLTCDASGSSFIFNAMGWSRQAHGIEMELVAGITRRVDSTFYADSVKGRFTISRDNAKNTVYLQMTSLKPEDTGVFFFAARQYSGVKYNYWGQGTEVTVSS	high polyreactivity
QVQLQESGGGLVQAGGSPRLSCAASDNIFPDSVMCWSRQAPGKERELVATIGFGATTNYADSVKGRFTISRDNAKNTVYLQMNSLKPEDTAVYYCAADPLNYEYFCYWGQGTQVTVSS	low polyreactivity
QVQLVESGGGLVQAGGSLRLSCAASGIILGRYAMGWYRQAPGKERELVAAITASGGRTYYADSVKWRFTISRDNAKNTVYLQMNSLKPEDTAVYYCNTVYWGYKSHYDYWGQGTQVTVSS	high polyreactivity
QVQLVESGGGLVQAGGSLRLICAASGFTIVPNAMGWYRQAPGKERELVAAISRSTGGTYYADSVKGRFTISRDNAKNTVYLQMNSLKPEDTAVYYCAAEYWYWTYGMDYWGQGTQVTVSS	high polyreactivity
QVQLVESGGGIVQAGGSLRLSCAASGRNFGPYTMGWYRQAPGKERELVATISYSGSTTYYSDSVKGRFTISRDNAKNTVYLQMNSLKPEDTAVYYCNAQYYVFITFDYWGQGTKVTVSS	high polyreactivity
QVQLVESGGGLVQAGGSLRLSCAASGRIFSKYAMGWYRQAPGKARELVAAISTSTGSTYYADSVKGRFTISRDNAKNTVYLQMNSLKPEDTAVYYCAAVGSRWFSQTWRDYWGQGTQVTVSS	high polyreactivity
QVQLVESGGGLVQAGGSLRLSCAASGITFGTNAMGWYRQAPGKERELVAAITSGVSTYYADSVKGRFTISRDNAKNTVYLQMNSLIPEDTAVYYCAKDVAVYADLYQGDPYGYWGQGTLVTVSS	low polyreactivity
QFQLVESGGGLVQAGGSLRLSCAASGITFKTYAMGCYRQAPGKERELFATINRGSRTNYADSVKGRFTISRDNAKNTVYLQMNSLKPEDTAVYYCAAHYTTFIPSPDGDYLGQGTQVTVSS	low polyreactivity
QVQLVESGGGLVQAGGSLRLSCAASGFTFWYYAMGWYRQAPGKERELVARITSRGADTYADSVKGRFTISRDNAKNTVYLQKNSLKPEDTAVYYCNAEFGRARDDDYWGQGTQVTVSS	low polyreactivity
QVQLVESGGGLVQAGGSLRLSCAASGFTLTLYAMGWYRQAPGKERELVARITSSGGITYYADSVKGRFTISRDNAKNTVYLQMISLKPEDTAVYYCAKEALIGPSRIILGEMGYWGQGTQVTVSS	low polyreactivity
QVQLVESGGGLVQAGGSLRLSCAASGSTFYLNAMGWYRQAPGKERELVAAITVSGGSTYYADSVKGRFTISRDNAKNTVYLQMNSLKPEDTAVYYCARELLSPTYQRWYYYWGQGTQVTVSS	low polyreactivity
QVQLVESGGGLVQAGGRLRLSCAASGRIFNKYVMGWYRQAPGKERELVAAISGRGGSTYYADSVKGRFTISRDYEKNTVYLQMNSLKPEDSAVYYCAAEYQGRRMYYWGQGTQVTVSS	high polyreactivity
QGQLVESGGGLVQAGGSLRFSCAASGRTLSAHAMGWYREAPGTERELVATISTRGGRTYYADSVKGRFTISRDHAKNTVYIQMNSLKPEHTAVYSCAVTIRAKYTLKEDYWGQGTQVTVSS	low polyreactivity
QVQLVESGGGLVQAGGSLRLSCAASGSIFTVNAMGWYIQAPGIERELVAAIDGSSGSTNYADSVKGRFTISRDIAKNTVYLQMNSLKPEDTAVYYCAADWSYEYGYWGQGTQVTVSS	low polyreactivity
QVQLVESVGGLVQAGGSLRLSCAASGFIFWPYAMGWSRQAPGKERELVAGITSDGSTHYADSVKGRFTISRDNAKNTVYLQINSLKPQDTAVYYCAKGIRYGYRVRVYYWGQGTQVTVSS	high polyreactivity
QVQLVESGGGLVQAGGSLRLSCAASGRTFSPYAMGWYRQAPGKERELVAAITNGGSTHYADSVKGRFTISRDNAKNTVYLQMNSLKPEDTAVYYPYDYWGQGTQVTVSS	low polyreactivity
QVQLVESGGGLVQAGGSLRLSCAASGRIFSNNAMGWYRQAPGNERELVAAISSSGGSTYYADSVKGRFTISRDNAKNTVYLQMNSLKPEDTAVSYCNVGRRKIDDYWGQGTQVTVSS	high polyreactivity

Sequence	polyreactivity (PSR sort gate)
QVQLVESGGGLVQAGGSLRLSCAASGRTFVTYAMGWYRQAPGKEREFVAAITWSTGTSTYYADSVKGRFTISRDNAKNTVYLQMNSLKPEDTAVYYCAVDIWWPTWYYIYWGQGTQVTVSS	low polyreactivity
QVQLVESGGGLVQAGGSLRLSCAASARIFYAYTMGWYRQAPGKERELVAAISGSGSTYYADSVKGRFTISRDNAMNTFFLQMNSLKPEDTAVYYCAADVTGGRKYDYWGQGTEVTVSS	low polyreactivity
QVQLVESGGGLVQAGGSLRLSCAASGFTFDYYVMGWYIQAPGKERELVAAITFSATSTYYADSVKGRYTISRDNAKNTVYLQMNSLNPEDTAVYYCAAVICNWQYQYYYWGQGTKVTVSS	low polyreactivity
QVQLQESAGGLVQAGGSLRLRFSASAYNSCDASMGWYSQAPGKERELSASISKGSSTNYADSVKGRFTIRDNAKNSVYLQMNSLKPEVTAVCYCAVTYPYWGDYTYWGQGTQVSVSS	low polyreactivity
QVQLVESGGGLVQAGGSLRLICAASGRTFGTNTMGWYRQAPGKERELVATISSSSGSTYYADSVKGRFTISRDNAKNTVYLQMNSLKPEDSAVYYWAALYRWGYKRYDYWGQGTQVTVSS	high polyreactivity
QVHLVESGGGLVQAGGSLRLSCAASGRTVEGNAMGWYIQAPGKERELVAAITSGGRTNYADSVKGRFTISRDNAKNTVYLQMNSLKPVDTAVYYCAVETRDRSTDFPGQAYDYWGQGTQLTVSS	low polyreactivity
QVQLLESVGGLVQAGGSLRLSCAASGRIFGSNAMGWYRQAPGKERELVAAITRGGSTNYADSVKGRFTISRDNAKNTVYLQMNSLKPEDTAVYYCAVRWYRKYNYWGQGTQVTVSS	high polyreactivity
QVQLVESGGGLVQAGGSLRLSCAASGRTFYGYAMGWYRQAPAKERELVAAITWSVGRTYYADSVKGRFTISRDNAKNTVYLQMNSLKPEDTAVYYCAAQRAGLFNYWGQGTQVTVSS	low polyreactivity
QVQLVESGGGLVQAGGSLRLSCAACGSIFKGNAMGWYRQAPGKERELVARISSGGSTYYADSVKGRFTISRDNAKNTVYLQMNSLKPEDTAVYYCAARVYTSYIRQYTYSYYYWGQGTQVTVSS	high polyreactivity
QVQLVESGGGLVQAGGSLRLSCSASGSIFKRNAMGWYRQAPGKERELVAAITTRGGRTYYADSVKGRFTISRDNAKNTVYLQLNSLKPEDTAVYFCAVVPAAGSGGYGYSRYDYWGQGSQVTVSS	high polyreactivity
QVQLVESGGGLVQAGGSLRLICAASGSIFIGNTMGWYRQAPGKERELVATIRRSGSRTYYADSVKGRFTISRDNAKNTVYLQMNSLKPEDPAVYYCNAEGVGRYSPVSHTFDYWGQGTQVTLSS	low polyreactivity
QVQLVESGGGLVQAGGSLRLSCAASGRTFRYYVMGWYRQAPGKERELVADISRGGGRTRYADSVKGRFTISRDNAKNTVDLQMNSLKPEDTAVYYCAARSYTGQFGYWGQGTQVTVSS	high polyreactivity
QVQLEESGGGLVQAGGSLRLSCAASGSIFLGNAMGWYRQAPGKERDLVAAISGGDSTNYADAVKGRFTISRDNAKNTGYLEMNCLKPEDTAVYYCNAVRTLYIWWPGYYYCGQGTQVTVSS	low polyreactivity
QVQLVESGGGLVQAGGSLRLSCAASGIIFYRYAMGWYRQAPGKERELVAAISSSGTNTYYADSVKGRFTISRDNAKNTVYLQMNSLKPEDTAVYYCNSDTWADRSTYDYWGQGTQVTVSS	low polyreactivity
QVQLVESGGGLVQAGGSLRLSCAASGFTFRYYAMGWYRQAPGKERELVASISWSSGSTHYADSVKGRFTISRDNAKNTVYLQMNSLKPEDTAVYYCNARHRTSSMHYWGQGTQVTVSS	high polyreactivity
QVQLVESVGGLVQAGGSLRLSCAASGRTFSVYTMGWYRQAPGKERELVASINWSGGRTYYADSVKGRFTISRDNAKNTVYLQMNSLKPEDTAVYYCAATGWRTLYDYWGQGTLVTVSS	high polyreactivity
QVQLVESGGGLVQAGGSLRLICAASGRTLSGYAMGWYRQAPGKDRELVAVITSGGSTYYADSVKGRFTISRDNAKNTVYLQMNSLKPEDTAVYYCAARGSRLYSSWRGVYWGQGTQVTVSS	high polyreactivity
QVQLVESGGGLVQAGGSLRLSCAASGIIFVYYAMGWYRQAPGKERELVAAISYSGGRTYYADSVKGRFTISRDNAKNTVYLQMNSLKPEDTAVYYCAAVDRRGYRYALDYWGQGTQVTVSS	high polyreactivity
QVQLVESGGGLVQAGGSLRLSCAASGFTFRRYAMGWYRQAPGKERELVAAISASGGNTYYADSVKGRFTISRDNAKNTVYLQMNSLKPEDTAVYYCATDWTVRYDYWGQGTQVTVSS	high polyreactivity
QVQLVESGGGLVQAGGSLRLSCAASGLIFSSYVMGWYRQAPGKERELVAAISSKGGSTYYADSVKGRFTISRDNAKNTVYLQMNSLKPEDTAVYYCAARVYYPVRYGYWGQGTQVTVSS	high polyreactivity
QVQLVESGGGLVQAGGSLRLSCAASGSIFLRYAMGWYRQAPGKERELVAAITTGGGSTYYADSVKGRFTISRDNAKNTVYLQMNSLKPEDTAVYYCAARIRQNPGGDNSWGQGTQVTVSS	low polyreactivity
